Experimental data taken from paper PMC9095892 (The Journal of Biological Chemistry, 2022).

B1: Streptomyces griseus StrM (TDP-sugar 3'',5''-epimerase, RmlC ortholog) (enzyme, UniProt P29783 1-200, looked up)
chain: MRPLSVQGAWLSETRAFADDRGEFQELYSARSLRGALGYDPGVAQVNRSVSRRGVLRGVHFAQLPPSQAKYVTCLSGAVLDVVVDIRTGSPTYRAWEAVRLDDPHRSLYVEAGLGHSFMALTDDAVVVYLTSQGYAAGREHGVHPLDPDLGIAWPDGIEPVLSEKDRQAPGIAEMERRGLLPDYEECLAFRRSLCERGTG
notes: also called SgStrM

Tests used:
[1] = tested on: Cc1cn([C@H]2C[C@H](O)[C@@H](COP(=O)(O)OP(=O)(O)O[C@H]3O[C@H](C)C(=O)[C@H](O)[C@H]3O)O2)c(=O)[nH]c1=O; assay: purified protein; conditions: pH 7.5
[2] = biological target: the molecule itself; assay: crystal structure

Row | Molecule | Km [1] [µM] | kcat/Km [1] [M⁻¹ s⁻¹] | binding result [2]
1 | EvaD (AoEvaD) (Amycolatopsis orientalis) | 632 ± 98 | 630 ± 70 | 
2 | RmlC (EcRmlC; E. coli RfbC) (Escherichia coli K-12) | 830 ± 40 | 6600 ± 200 | 
3 | StrM (SgStrM) (Streptomyces griseus) | 600 ± 40 | 9100 ± 400 | 
4 | B1 |  |  | binds
